Data: publication PMC12561408, “AI‐Driven De Novo Design of Ultra Long‐Acting GLP‐1 Receptor Agonists” (Advanced Science, 2025)

Key:
Assay in all cases: SPR
Details in all cases: both partners purified
[1] = molecular target: T1, GST-peptide fusion protein D41
T1 construct: source: E. coli BL21 (DE3), GST-peptide fusion; not shown: GST, N-terminal, kept

[2] = molecular target: T2, GST-peptide fusion protein D13
T2 construct: source: E. coli BL21 (DE3), GST-peptide fusion; not shown: GST, N-terminal, kept

[3] = molecular target: T3, GST-peptide fusion protein D44
T3 construct: source: E. coli BL21 (DE3), GST-peptide fusion; not shown: GST, N-terminal, kept

B1: Human GLP-1R protein (receptor)
chain: RPQGATVSLWETVQKWREYRRQCQRSLTEDPPPATDLFCNRTFDEYACWPDGEPGSFVNVSCPWYLPWASSVPQGHVYRFCTAEGLWLQKDNSSLPWRDLSECEESKRGERSSPEE
B1 was tested, and the Kd [1] was 5.19 µM, the Kd [2] was 8.58 µM and the Kd [3] was 6.78 µM.
